From PMC3538890 (Traffic (Copenhagen, Denmark), 2012)

T1: CFP-GS27 (UniProt O14653 1-212)
T1 sequence (looked up): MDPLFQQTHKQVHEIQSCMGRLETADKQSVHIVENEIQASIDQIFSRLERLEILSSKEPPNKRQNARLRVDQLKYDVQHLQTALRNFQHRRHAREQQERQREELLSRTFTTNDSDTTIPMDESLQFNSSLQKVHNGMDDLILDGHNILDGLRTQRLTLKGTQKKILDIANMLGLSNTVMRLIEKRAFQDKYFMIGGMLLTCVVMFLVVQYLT


Molecular target: T1, CFP-GS27
Experiment: co-IP

Binder | fold reduction of co-IP against full length COG6-myc [fold]
COG6-myc with deletion of residues 112-150 (natural protein, human, UniProt Q9Y2V7 1-657, looked up) MAEGSGEVVAVSATGAANGLNNGAGGTSATTCNPLSRKLHKILETRLDNDKEMLEALKALSTFFVENSLRTRRNLRGDIERKSLAINEEFVSIFKEVKEELESISEDVQAMQVADAFLSKFQLTSDEMSLLRGTREGPITEDFFKALGRVKQIHNDVKVLLRTNQQTAGLEIMEQMALLQETAYERLYRWAQSECRTLTQESCDVSPVLTQAMEALQDRPVLYKYTLDEFGTARRSTVVRGFIDALTRGGPGGTPRPIEMHSHDPLRYVGDMLAWLHQATASEKEHLEALLKHVTTQGVEENIQEVVGHITEGVCRPLKVRIEQVIVAEPGAVLLYKISNLLKFYHHTISGIVGNSATALLTTIEEMHLLSKKIFFNSLSLHASKLMDKVELPPPDLGPSSALNQTLMLLREVLASHDSSVVPLDARQADFVQVLSCVLDPLLQMCTVSASNLGTADMATFMVNSLYMMKTTLALFEFTDRRLEMLQFQIEAHLDTLINEQASYVLTRVGLSYIYNTVQQHKPEQGSLANMPNLDSVTLKAAMVQFDRYLSAPDNLLIPQLNFLLSATVKEQIVKQSTELVCRAYGEVYAAVMNPINEYKDPENILHRSPQQVQTLLS | ~7
COG6-myc with deletion of residues 76-112 (natural protein, human, UniProt Q9Y2V7 1-657, looked up) MAEGSGEVVAVSATGAANGLNNGAGGTSATTCNPLSRKLHKILETRLDNDKEMLEALKALSTFFVENSLRTRRNLNCCQDMTSRLQAAKEQTQDLIVKTTKLQSESQKLEIRAQVADAFLSKFQLTSDEMSLLRGTREGPITEDFFKALGRVKQIHNDVKVLLRTNQQTAGLEIMEQMALLQETAYERLYRWAQSECRTLTQESCDVSPVLTQAMEALQDRPVLYKYTLDEFGTARRSTVVRGFIDALTRGGPGGTPRPIEMHSHDPLRYVGDMLAWLHQATASEKEHLEALLKHVTTQGVEENIQEVVGHITEGVCRPLKVRIEQVIVAEPGAVLLYKISNLLKFYHHTISGIVGNSATALLTTIEEMHLLSKKIFFNSLSLHASKLMDKVELPPPDLGPSSALNQTLMLLREVLASHDSSVVPLDARQADFVQVLSCVLDPLLQMCTVSASNLGTADMATFMVNSLYMMKTTLALFEFTDRRLEMLQFQIEAHLDTLINEQASYVLTRVGLSYIYNTVQQHKPEQGSLANMPNLDSVTLKAAMVQFDRYLSAPDNLLIPQLNFLLSATVKEQIVKQSTELVCRAYGEVYAAVMNPINEYKDPENILHRSPQQVQTLLS | ~7
